Results on 1 molecule are retold here after US20080085860A1 (Eli Lilly, published 2008).

The target of the assay is T1, Rat VPAC1 receptor (rat, UniProt P30083 31-459).
T1 sequence (looked up): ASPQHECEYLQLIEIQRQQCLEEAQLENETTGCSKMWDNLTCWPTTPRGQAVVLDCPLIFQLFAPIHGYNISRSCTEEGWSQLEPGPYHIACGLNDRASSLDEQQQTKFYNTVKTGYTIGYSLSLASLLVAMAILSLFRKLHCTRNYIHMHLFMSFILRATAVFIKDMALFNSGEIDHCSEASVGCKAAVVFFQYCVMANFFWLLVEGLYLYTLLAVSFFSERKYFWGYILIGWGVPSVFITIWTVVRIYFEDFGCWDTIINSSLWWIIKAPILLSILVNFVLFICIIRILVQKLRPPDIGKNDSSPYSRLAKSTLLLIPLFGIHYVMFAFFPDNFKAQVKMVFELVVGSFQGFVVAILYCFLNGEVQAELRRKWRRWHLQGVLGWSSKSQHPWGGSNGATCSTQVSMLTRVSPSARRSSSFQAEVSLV
Nature of the assay: cell-based or functional assay.

* marks the point of attachment. Hexanoyl = CCCCCC(=O)*

B1: P136: C6-…(WPEG40K)-NH2 (SEQ ID NO: 44) (peptide)
peptide: Hexanoyl-HSDAVFTDNYTRLRKQVAAKKYLQSIKNSRTSPPPK-NH2
modifications: not fully specified (residue 36); printed as C6-HSDAVFTDNYTRLRKQVAAKKYLQSIKNSRTSPPPK(WPEG40K)-NH2
On to B1, for which the “EC50 (nm), in vitro potency using DiscoveRx (cAMP)” value was 15 nM.
